Here are results for 1 protein from publication PMC5132288, “Identification, Heterologous Expression, and Functional Characterization of Bacillus subtilis YutF, a HAD Superfamily 5'-Nucleotidase with Broad Substrate Specificity” (PLoS ONE, 2016).

Assay type in all cases: biochemical, Bacillus subtilis
Substrate in the series “purified protein”: O=[N+]([O-])c1ccc(OP(=O)(O)O)cc1
The series can be described thus: purified protein. The following applies: 100 mM Tris-HCl pH 8.9, 5 mM MgCl2, 25°C.

Substrate in series [1]: O=P(O)(O)OC[C@H]1O[C@H](OP(=O)(O)OP(=O)(O)O)[C@H](O)[C@@H]1O
Nature of the series: colorimetric inorganic phosphate release, nonlinear regression. The following applies: 100 mM MES pH 6.0, 5 mM MgCl2, 37°C. The text has this: (§1) colorimetric inorganic phosphate release, nonlinear regression on Ht-YutF (recombinant YutF, N-terminal hexahistidine tag)

Substrate in series [2]: Nc1nc2c(ncn2[C@@H]2O[C@H](COP(=O)(O)O)[C@@H](O)[C@H]2O)c(=O)[nH]1
The series is described as above. The following applies: 100 mM MES pH 6.0, 5 mM MgCl2, 37°C.
From the text: as §1

Substrate in series [3]: O=c1[nH]c(=O)c2ncn([C@@H]3O[C@H](COP(=O)(O)O)[C@@H](O)[C@H]3O)c2[nH]1
The series is described as above. The following applies: 100 mM MES pH 6.0, 5 mM MgCl2, 37°C.
From the text: as §1

B1: Ht-YutF (recombinant YutF, N-terminal hexahistidine tag) (Bacillus subtilis subsp. subtilis str. 168) (protein)
chain: KTYKGYLIDLDGTMYNGTEKIEEACEFVRTLKDRGVPYLFVTNNSSRTPKQVADKLVSFDIPATEEQVFTTSMATAQHIAQQKKDASVYVIGEEGIRQAIEENGLTFGGENADFVVVGIDRSITYEKFAVGCLAIRNGARFISTNGDIAIPTERGLLPGNGSLTSVLTVSTGVQPVFIGKPESIIMEQAMRVLGTDVSETLMVGDNYATDIMAGINAGMDTLLVHTGVTKREHMTDDMEKPTHAIDSLTEWIPYI
On to B1, for which the Michaelis constant (Km) (in general, the substrate concentration at which the rate is half of its maximum) in “purified protein” is 1640 ± 60 µM; in series [1] it was 1270 ± 100 µM; in series [2], 6650 ± 1260 µM; in series [3], 1530 ± 110 µM. Besides, the turnover number (kcat) (commonly the maximal rate divided by the concentration of active sites) in “purified protein” came out at 61 ± 1 s⁻¹; in series [1], 0.17 ± 0.01 s⁻¹; in series [2], 0.06 ± 0.01 s⁻¹; in series [3], 0.31 ± 0.01 s⁻¹. Further, the kcat/Km – broadly, the second-order rate constant that governs catalysis at low substrate concentration – in “purified protein” worked out at 37000 M⁻¹ s⁻¹; in series [1] it was 130 M⁻¹ s⁻¹; in series [2], 9 M⁻¹ s⁻¹; in series [3] it was 210 M⁻¹ s⁻¹.
